From the nanobody polyreactivity screen of Harvey et al. (2022)

Assay: yeast display, Sf9 membrane polyspecificity reagent, FACS + sequencing; frameworks hold sequencing errors
Procedure, shortened: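 Nanobodies came from a synthetic yeast display library in Saccharomyces cerevisiae BJ5465, induced with galactose for 36–48 hours and stained for 1 hour at 4 °C with 10% biotinylated, detergent-solubilized Sf9 membrane reagent. Cells were enriched on streptavidin microbeads and then FACS-sorted, with low and high (top ~1%) gates set on anti-HA fluorescence for expression and streptavidin fluorescence for reagent binding. Each polyreactivity label reflects the gate a clone came from. Genes were amplified by colony PCR, sequenced by MiSeq 2 × 250 and filtered by CDR length.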

Row | Sequence | polyreactivity (PSR sort gate)
1 | QVQLVESGGGLVQAGGSLRLSCAASGSTFVTNAMVWYRQAPGKERELVAAIDYDSGSTYYADSVKGRFTISRDNAKNTVYLQMNSLIPEDTAVYYCNADEQSEEEWEYYYSYDYWGQGTQVTVSS | high polyreactivity
2 | QVQLVESGGGLVQAGGSLRLSCAASGSTFVTYAMGWYRQAPGKERELVAAISRSGGSTYYADSVKGRFTISRDNAKNTVYLQMNSLKPEDTAVYYCAAVIYPYYSYAHRYDYWGQGTQVTVSS | low polyreactivity
3 | QVQLVESGGGLVQAGGSLRLSCAASGSTFVTYVMGWYRQAPGKERELVADIRRSGGSTYYADSVKGRFTISRDNAKNTVYLQMNSLKPEDTAVYYCAAYQYYYVNEVRRYYYWGQGTQVTVSS | high polyreactivity
4 | QVQLVESGGGLVQAGGSLRLSCAASGSTFVVNAMGWYRPAPGKERELVAAIDGSDGSTYYADSVKGRFTISRDNAKNTVYFQMNSLKPEDTAVYYCAAEVLGRPDVENDYWGQGTQVTVSS | low polyreactivity
5 | QVQLVESGGGLVQAGGSLRLSCAASGSTFVVNDMGWYRQAPGKERELVAAIRSGTSTNYADSVKGRFTISRDNAKNTVYLQMNSLKPEDTAVYYCNAAITQFAWNRYTLIYDYWGQGTQVTVSS | low polyreactivity
6 | QVQLVESGGGLVQAGGSLRLSCAASGSTFVVYAMGWYRQATGKERELVAAISANVGGTYYADSVKGRFTISRDNAKNTVYLQMNSLKPEVTAVYYCAADYAYNYFWRPGDYWGQGTQVTVSS | low polyreactivity
7 | QVQLVESGGGLVQAGGSLRLSCAASGSTFVWNAMGWSRQAPGKERQLVAAIDSGGSTNYADSVKGRFTISRDNAKNTVYLQMNSLKPEDTAVYYCATDQGYRYLKIYVYGDAFDYWGQGTQVTVSS | low polyreactivity
8 | QVQLVESGGGLVQAGGSLRLSCAASGSTFVWYAMGWYRQAPGKEREFVAAITNSGGSTYYADSVKGRFTISRDNAKNTVYLQMNSLKPEDTAVDYCAKDRYYYRGAYHEYNYWGQGTQVTVSS | low polyreactivity
9 | QVQLVESGGGLVQAGGSLRLSCAASGSTFVYAMAWYSQAPGKERELVAAITTGDSTYYADSVKGRFTISRDNAKNTVYLQMNSLKPEDTAVYYCAAQWYTRYGEYGYWGQGTQVTVSS | low polyreactivity
10 | QVQLVESGGGLVQAGGSLRLSCAASGSTFVYNALGWDRQAPGKERELVAAITRRGGTTYYADSVKGRFTMSRDNAKNTVYLQMNSLKQEDTAVYYCAARTRGTAYNYSGQGTQVTVSS | high polyreactivity
11 | QVQLVESGGGLVQAGGSLRLSCAASGSTFVYNAMGWSRQAPGKERELVAVITYRGGRTYYADSVKGRFTISRDNAKNTVYLQINSLKPEDTAVYYCAKRVYGSKVRGYDYWGQGTQVTVSS | high polyreactivity
12 | QVQLVESGGGLVQAGGSLRLSCAASGSTFVYNAMGWYRQAPGKERELVAAITSRGGSTDYADSVKGRFTISRDNAKNTVYLQMNSLKPEYTSVYYCAADYSHTGSRYYQEGDYWGQGTQVTVSS | low polyreactivity
13 | QVQLVESGGGLVQAGGSLRLSCAASGSTFVYYALGWYRPSPGKERELVARITRSGGSTYYADSVKGRFTISRDNAKNTVYLQMNSLKPEDTAVYYCAAEQSVYFLVFTGVKFDYWGQGSQVTVSS | low polyreactivity
14 | QVQLVESGGGLVQAGGSLRLSCAASGSTFVYYAMGWYRQAPGKERELVAAISRSGGNTYYADSVKGRFTISRDNAKNTVYLQMNSLKPEDTAVYYCAARSYGVQYYYWGQGTQVTVSS | high polyreactivity
15 | QVQLVESGGGLVQAGGSLRLSCAASGSTFVYYAMGWYRQAPGKERELVAAISWSSDSTYYADSEKGRFTISRDNAKNTVYLQMNSLKPEDTAVYYCARSDGRQSYWTDFSTDYYFWGQGTQVTVSS | low polyreactivity
16 | QVQLVESGGGLVQAGGSLRLSCAASGSTFVYYAMGWYRQAPGKERELVARITRGGGSTNYADSLKARFTISRDNAKNTVYLHMNSLKPEDTAVYYCAKRRKVTYDYWGQGTQVSVSS | high polyreactivity

Row | Sequence | polyreactivity (PSR sort gate)
17 | QVQLVESGGGLVQAGGSLRLSCAASGSTFWDYAMGWYRPAPGKERELVAAISTSGGSTYYADSVKGRFTISRDNAKNTVYLQMNSLKPEDPAVYYFAAGRVRRRVWYNYWGQGTQVTVSS | high polyreactivity
18 | QVQLVESGGGLVQAGGSLRLSCAASGSTFWFNAMGWYRQAPGKERELVAAIDSNTGSTSYADSVKGRFTISRDNAKNTVYLQMNSLIPEDTAVYYCNADYDFAKDRGDYWGQGTQVTVSS | low polyreactivity
19 | QVQLVESGGGLVQAGGSLRLSCAASGSTFWFSAMGWYRQEPGKERELVAAITWSGGRTYYADSVKGRFTISRDNAKNTVYLQLNSLKPEDTAVYYCNKAYPQFGPLDDWGQGTQVTVSS | low polyreactivity
20 | QVQLVESGGGLVQAGGSLRLSCAASGSTFWFYAMGWYRQAPGKERELVAAITRGGSTYYADSVKGRFSISRDNAKNTVYLQMNSLKPEDTAVYYCAAEVGWSRYKWLEYWGQGTQVTVSS | low polyreactivity
21 | QVQLVESGGGLVQAGGSLRLSCAASGSTFWFYAMGWYRQAPGKERELVAVISNYGSTYYADSVKGRFTISRDNAKNTVYLQMNSLITEDTAVYSCNKDGGGDSYWYDYWGQGTQVTVSS | low polyreactivity
22 | QVQLVESGGGLVQAGGSLRLSCAASGSTFWGYAMGWYRQAPGTERELVAAITRNGGGTYYADSVKGRFTISRDNAKNTVYLQMNSLKPEDTAVYYCAATRRAYYLYGGQKMDYWGQGTQVTVSS | high polyreactivity
23 | QVQLVESGGGLVQAGGSLRLSCAASGSTFWGYTMGWYRQAPGKERELVAAITSGGSTNYADSVKGRFTISRDNAKNTVYLQMNSLKPEDTAVYYCNAVYPGRRRYRKWYIYDYWGQGTQVTVSS | high polyreactivity
24 | QVQLVESGGGLVQAGGSLRLSCAASGSTFWIYAMGWYRPAPGKERELVAAITLRSGSTYYADSVKGRFTISRDNAKNTVYLQMNSLKPEDTAVYYCAKDYYGTYYAQYNYWGQGTQVTVSS | low polyreactivity
25 | QVQLVESGGGLVQAGGSLRLSCAASGSTFWIYAMGWYRQAPGKERELVAAITLRSGSTYYADSVKGRFTISRDNAKNTVYLQMYSLKPEDTAVYYCATDSWGVDRPNYNYWGQGTQVTVSS | low polyreactivity
26 | QVQLVESGGGLVQAGGSLRLSCAASGSTFWIYPMGWYRQAPGKERELVAAISNGDSTNYADSVKGRFTISRDNAKNTVYLQMNSLKPEDTAVYYCARQYRIFKTFKYDYWGQGTQVTVSS | low polyreactivity
27 | QVQLVESGGGLVQAGGSLRLSCAASGSTFWKYAMGWYRQAPGKERELVASIRSGGSTYYADSVKGRFTISRDNAKNNVYLQMNSLKPEDTAVYYCNAMSRTVSHEADDYWGQGTQVTVSS | high polyreactivity
28 | QVQLVESGGGLVQAGGSLRLSCAASGSTFWLNAMGWYRQAPGKERELVADISRSGGSTYYADSVKGRFTISRDNAKNTVYLQMNSLKPEDTAVYYCAADSWPDQFTVYPGGDYWGQGTQVTVSS | low polyreactivity
29 | QVQLVESGGGLVQAGGSLRLSCAASGSTFWLYAMGRYRPAPGKERELVASISSRGGSTYYADSVKGRFTISRDNAKNTVYLQMNSLKPEDTAVYYCAAKDIRYDDDYWGQGTQVTVSS | low polyreactivity
30 | QVQLVESGGGLVQAGGSLRLSCAASGSTFWLYAMGWYRQAPGKERELVAAIRSGDRTNYADSEKGRFTISRDNAKNTVYLQMNSLKPEDTAVYYCAAVAYLNWTPHYYWGQRTQVTVSS | low polyreactivity
31 | QVQLVESGGGLVQAGGSLRLSCAASGSTFWPNAMGWYRQAPGKERELVAAISWSSSSGGRTYYADSVKGRFTISRDNAKNTVYLQMNSLKPEDTAVYYCNASYRDEDDYWGQGTQVTVSS | high polyreactivity
